Data from publication doi:10.1101/2023.07.18.549520.

What was measured:
[1] = target: soluble type I collagen (acid-soluble type I atelocollagen from bovine hides) (bovine) (UniProt P02453); assay: ELISA
[2] = target: type I gelatin (heat-denatured acid-soluble type I atelocollagen from bovine hides) (bovine) (UniProt P02453); assay: ELISA
[3] = target: V-domain of Scl2.3 (Streptococcus pyogenes); assay: SDS-PAGE

soluble type I collagen (acid-soluble type I atelocollagen from bovine hides) (bovine), sequence (P02453 162-1217, chain 1 of 2): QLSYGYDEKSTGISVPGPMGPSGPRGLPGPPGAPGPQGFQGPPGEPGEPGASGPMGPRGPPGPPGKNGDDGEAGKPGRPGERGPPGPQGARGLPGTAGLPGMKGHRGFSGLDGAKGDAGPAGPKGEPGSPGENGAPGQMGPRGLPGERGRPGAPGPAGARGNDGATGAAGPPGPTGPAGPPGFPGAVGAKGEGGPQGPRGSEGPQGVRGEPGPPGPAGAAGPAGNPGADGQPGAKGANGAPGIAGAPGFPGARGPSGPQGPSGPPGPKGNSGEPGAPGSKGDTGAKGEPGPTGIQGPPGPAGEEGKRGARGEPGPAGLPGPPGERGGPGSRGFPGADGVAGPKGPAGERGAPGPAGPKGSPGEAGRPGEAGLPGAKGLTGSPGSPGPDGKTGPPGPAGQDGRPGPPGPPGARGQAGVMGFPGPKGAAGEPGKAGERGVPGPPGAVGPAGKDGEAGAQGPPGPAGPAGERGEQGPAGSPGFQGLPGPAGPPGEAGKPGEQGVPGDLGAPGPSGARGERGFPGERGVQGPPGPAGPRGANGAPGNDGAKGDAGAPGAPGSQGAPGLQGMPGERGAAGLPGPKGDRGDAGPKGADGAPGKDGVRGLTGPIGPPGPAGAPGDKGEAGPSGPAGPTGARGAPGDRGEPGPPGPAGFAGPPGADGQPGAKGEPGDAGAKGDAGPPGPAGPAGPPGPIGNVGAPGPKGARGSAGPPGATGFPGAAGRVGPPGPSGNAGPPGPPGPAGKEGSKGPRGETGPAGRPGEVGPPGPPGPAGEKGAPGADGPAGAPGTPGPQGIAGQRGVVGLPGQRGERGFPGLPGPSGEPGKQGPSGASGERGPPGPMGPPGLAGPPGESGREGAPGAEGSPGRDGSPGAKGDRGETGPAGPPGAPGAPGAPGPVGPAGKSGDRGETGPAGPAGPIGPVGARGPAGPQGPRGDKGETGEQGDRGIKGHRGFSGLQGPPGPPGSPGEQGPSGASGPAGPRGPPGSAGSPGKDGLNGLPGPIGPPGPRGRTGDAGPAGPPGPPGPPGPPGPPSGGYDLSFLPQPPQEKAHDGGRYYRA
soluble type I collagen (acid-soluble type I atelocollagen from bovine hides) (bovine), sequence (P02465 80-1117, chain 2 of 2, further chain): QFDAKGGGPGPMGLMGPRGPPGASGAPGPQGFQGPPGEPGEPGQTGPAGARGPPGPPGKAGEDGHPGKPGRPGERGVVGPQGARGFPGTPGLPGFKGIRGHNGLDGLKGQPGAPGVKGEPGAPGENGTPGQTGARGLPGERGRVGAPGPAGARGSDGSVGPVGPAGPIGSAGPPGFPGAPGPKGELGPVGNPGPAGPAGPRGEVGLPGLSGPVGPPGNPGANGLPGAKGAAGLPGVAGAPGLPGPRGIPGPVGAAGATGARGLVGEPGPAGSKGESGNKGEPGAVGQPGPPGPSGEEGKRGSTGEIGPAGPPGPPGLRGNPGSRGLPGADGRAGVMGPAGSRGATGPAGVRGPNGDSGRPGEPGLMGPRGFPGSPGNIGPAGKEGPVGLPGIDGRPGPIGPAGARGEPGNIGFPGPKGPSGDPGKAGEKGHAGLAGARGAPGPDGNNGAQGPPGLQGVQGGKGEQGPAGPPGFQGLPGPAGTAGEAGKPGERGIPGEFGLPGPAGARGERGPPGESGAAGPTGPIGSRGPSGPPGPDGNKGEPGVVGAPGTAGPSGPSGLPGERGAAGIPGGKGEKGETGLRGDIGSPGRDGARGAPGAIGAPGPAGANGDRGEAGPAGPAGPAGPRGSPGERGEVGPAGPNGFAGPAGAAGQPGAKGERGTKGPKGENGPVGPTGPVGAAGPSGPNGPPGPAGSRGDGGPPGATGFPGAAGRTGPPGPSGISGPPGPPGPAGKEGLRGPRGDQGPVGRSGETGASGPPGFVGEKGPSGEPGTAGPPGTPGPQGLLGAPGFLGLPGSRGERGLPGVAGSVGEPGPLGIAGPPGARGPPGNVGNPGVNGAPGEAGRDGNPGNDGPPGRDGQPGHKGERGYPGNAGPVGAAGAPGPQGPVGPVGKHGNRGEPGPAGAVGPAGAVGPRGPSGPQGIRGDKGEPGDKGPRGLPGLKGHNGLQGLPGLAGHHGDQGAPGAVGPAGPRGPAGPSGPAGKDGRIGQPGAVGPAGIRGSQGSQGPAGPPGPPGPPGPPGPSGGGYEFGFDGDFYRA
type I gelatin (heat-denatured acid-soluble type I atelocollagen from bovine hides) (bovine), sequence (P02453 162-1217, chain 1 of 2): as the sequence (P02453 162-1217, chain 1 of 2) above
type I gelatin (heat-denatured acid-soluble type I atelocollagen from bovine hides) (bovine), sequence (P02465 80-1117, chain 2 of 2, further chain): as the sequence (P02465 80-1117, chain 2 of 2, further chain) above

| Substance | Kd [1] [nM] | Kd [2] [nM] | fold increase in affinity against ColQ1-CU G472V (WT) [1] [fold] | also measured |
| --- | --- | --- | --- | --- |
| ColQ1-CU G472V N226A (domain or fragment) | – | – | – | fold reduction in binding affinity against ColQ1-CU G472V (WT) [1]: > 90 fold; fold drop in binding affinity against ColQ1-CU G472V (WT) [2]: 90 fold |
| ColG-PD E524A (D398-G790) (domain or fragment) | 497000 | 243000 | – | – |
| V-domain of Scl2.3 (domain or fragment) | – | – | – | stoichiometry N [3]: 3 |
| ColQ1-CU G472V R169A (domain or fragment) | – | – | 9 | – |
| ColQ1-CU G472V F176A (domain or fragment) | – | – | 20 | – |
| ColQ1-CU G472V (domain or fragment) | 1600 | 1600 | – | – |
| ColG-CU E524A (Y119-G790) (domain or fragment) | 370 | 80 | – | – |
| ColQ1-CU G472V Y173A (domain or fragment) | – | – | – | fold drop in binding affinity against ColQ1-CU G472V (WT) [2]: 15 fold |
| ColQ1-CU G472V Y270A (domain or fragment) | – | – | 8 | – |
